These results are taken from US20260183408A1, “POLYPEPTIDE AND USE THEREOF” (SHENZHEN CHENYANG BIOLOGICAL TECHNOLOGY CO., LTD, priority 2022, published 2026).

Test [1] concerns the target T1, D2R/5-HT2CR complex (Homo sapiens, UniProt P28335).
T1 construct: host or cells: human 293T cells
T1 sequence (P28335 33-458): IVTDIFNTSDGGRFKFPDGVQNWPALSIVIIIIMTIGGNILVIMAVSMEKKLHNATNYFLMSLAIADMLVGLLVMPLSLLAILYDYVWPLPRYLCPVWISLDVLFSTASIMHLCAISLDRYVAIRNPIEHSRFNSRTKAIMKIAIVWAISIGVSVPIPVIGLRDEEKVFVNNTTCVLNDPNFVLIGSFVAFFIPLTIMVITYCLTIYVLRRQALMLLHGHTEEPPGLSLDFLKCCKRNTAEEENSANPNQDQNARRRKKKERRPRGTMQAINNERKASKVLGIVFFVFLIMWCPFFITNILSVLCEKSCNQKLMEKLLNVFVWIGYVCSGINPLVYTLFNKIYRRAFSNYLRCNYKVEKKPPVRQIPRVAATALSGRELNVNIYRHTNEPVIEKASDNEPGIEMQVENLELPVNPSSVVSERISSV
As to the kind of experiment: Co-immunoprecipitation / Western blotting of polypeptide-treated 293T cells. The test is classed as cell-based. Conditions: 293T cells transfected with 5-HT2CR and D2R, in the presence of 5-HT2CR and D2R agonists, TAT as control (FIG. 6). On the procedure:
(§1) Co-immunoprecipitation was performed using protein samples (with 100-500 μg protein) from the hippocampal tissue of the Balb/c mice. Mouse monoclonal antibodies against both 5-HT2CR and D2R, D2R, or 5-HT2CR were used for precipitation with 25 μl of the slurry of protein A/G+agarose beads (SantaCruz Biotechnology, sc-2001).
(§2) Western blotting analysis after precipitation: Denatured (at 100° C. for 10 min) proteins were separated on an 8% SDS-PAGE gel, then transferred to a nitrocellulose membrane, which was then blocked with skim milk in TBST (Tris-buffered saline with 0.1% Tween 20). Next, incubation was carried out with the primary antibodies at 4° C. overnight. Finally, treatment with an HRP-conjugated secondary antibody were performed for 1 h, signals were detected using the ECL UltraSignal chemiluminescence kit (4A Biotech, cat. no. 4AW011-500), and the bands were analyzed for densities using the Image Lab software.
Next, the 293T cells were treated with TAT-D2R-KL in the presence of 5-HT2CR and D2R agonists, while treatment with TAT was used as a control. The specific process was shown in FIG. 5, where the human 293T cell line was cultured in a high-glucose modified Eagle's medium (DMEM) supplemented with 10% fetal bovine serum (FBS). The cells were maintained in an atmosphere of 95% air and 5% carbon dioxide in an incubator at 37° C. […]
(In general: A western blot detects proteins with antibodies after separation by electrophoresis.)

Test [2] addresses T2, D2R/5-HT2CR complex (Mus musculus, UniProt P34968).
T2 construct: from tissue
T2 sequence (P34968 33-459): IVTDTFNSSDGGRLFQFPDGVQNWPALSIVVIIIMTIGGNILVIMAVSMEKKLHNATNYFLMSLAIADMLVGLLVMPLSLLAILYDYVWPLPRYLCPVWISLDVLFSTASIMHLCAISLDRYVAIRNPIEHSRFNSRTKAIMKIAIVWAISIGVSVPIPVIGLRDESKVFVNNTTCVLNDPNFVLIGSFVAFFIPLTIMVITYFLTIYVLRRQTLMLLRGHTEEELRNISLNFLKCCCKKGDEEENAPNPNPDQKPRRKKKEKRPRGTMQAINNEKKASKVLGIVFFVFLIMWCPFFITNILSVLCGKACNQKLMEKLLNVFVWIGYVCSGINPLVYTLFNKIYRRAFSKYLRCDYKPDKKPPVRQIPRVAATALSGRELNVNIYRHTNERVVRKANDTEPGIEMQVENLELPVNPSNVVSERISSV
Description: Co-immunoprecipitation of hippocampal tissue of polypeptide-treated SPS mice. As to conditions: intraperitoneal, 1.5 h (FIG. 7 left). The test is classed as in vivo. On the procedure:
as §1, §2
The SPS model was established with male Balb/c mice. […]
The fear conditioning, safety learning, and recall tests were carried out in two contexts (the fear conditioning and safety learning tests were carried out in context A; and the recall test was carried out in context B). […] After the experiment was completed, the freezing level was manually calculated based on the recorded video. […]

As to “TAT-D2R-KL: C-terminus of the KL (K226-L240) region of D2R fused to the transduction domain of HIV-1 Tat protein (SEQ ID NO: 5)”, the “interaction between 5-HT2CR and D2R” value with D2R/5-HT2CR complex [1] is listed as “significantly reduced”; with D2R/5-HT2CR complex [2], “decrease”.
